Square brackets hold non-standard residues; d marks the D form. Phe(3-F) = N[C@@H](Cc1cccc(F)c1)C(=O)O; Phe(4-F) = N[C@@H](Cc1ccc(F)cc1)C(=O)O; Tic = O=C(O)[C@@H]1Cc2ccccc2CN1; Cha = N[C@@H](CC1CCCCC1)C(=O)O; Phe(ol) = N[C@H](CO)Cc1ccccc1; Phg = N[C@H](C(=O)O)c1ccccc1; Nle = CCCC[C@H](N)C(=O)O; Nva = CCC[C@H](N)C(=O)O; Abu = CC[C@H](N)C(=O)O
Target: Cyclin A (UniProt P20248)
Assay: cyclin A binding assay, IC50 (immobilised ligand not given)
Conditions: not given

Substance | IC50
Ac-Arg-Arg-Leu-Asn-Phe-NH2 (peptide) | 8.15 µM

Target: Cyclin A (UniProt P20248)
Assay: competitive ELISA: cyclin A binding to immobilised biotinyl-Ahx-HAKRRLIF-NH2
Conditions: not given

Substance | Relative activity, Cyclin A Binding (relative to HAKRRLIF-NH2)
H-Dab-Ala-Lys-Arg-Arg-Leu-Ile Phe-NH2 (peptide) | 0.4
H-Thi-Ala-Lys-Arg-Arg-Leu-Ile Phe-NH2 (peptide) | 0.2
H-Pya-Ala-Lys-Arg-Arg-Leu-Ile Phe-NH2 (peptide) | 0.2
H-Hse-Ala-Lys-Arg-Arg-Leu-Ile Phe-NH2 (peptide) | 2
H-AAKRRLIF-NH2 | 2.5
H-FAKRRLIF-NH2 | 1

Target: Cyclin D1 (UniProt P24385)
Sequence (P24385 whole entry): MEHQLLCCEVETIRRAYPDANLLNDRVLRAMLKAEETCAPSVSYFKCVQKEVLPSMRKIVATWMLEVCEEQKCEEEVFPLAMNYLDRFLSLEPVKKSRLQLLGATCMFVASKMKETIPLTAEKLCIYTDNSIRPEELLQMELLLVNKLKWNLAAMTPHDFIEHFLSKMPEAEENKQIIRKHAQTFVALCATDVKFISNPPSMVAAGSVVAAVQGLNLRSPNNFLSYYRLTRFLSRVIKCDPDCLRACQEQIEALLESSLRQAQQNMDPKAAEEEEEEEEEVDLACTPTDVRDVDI
Assay: competitive ELISA: cyclin D1 binding to immobilised biotinyl-Ahx-p21(149-159)
Conditions: not given

Substance | IC50
P27 peptide H-Ser-Ala-Abu-Arg-Asn-Leu-Phe-Gly-NH2 | > 200 µM
P21 N-terminus-LIF hybrid KAURRLIF-NH2 (peptide) | 20 µM
P21 N-terminus peptide KAURRLFG-NH2 | 134 µM

Target: Cyclin A (UniProt P20248)
Assay: competitive cyclin A binding ELISA; competitor: immobilised biotinyl-Ahx-HAKRRLIF-NH2; at 100 µM test peptide
Conditions: not given

Substance | Maximum Inhibition (%)
H-Arg-Leu-Ile-Phe-NH2 (peptide) | 50%
H-Asn-Leu-Phe-Gly-NH2 (peptide) | 80%

Target: Cyclin A (UniProt P20248)
Assay: competitive cyclin A binding ELISA; competitor: immobilised biotinyl-Ahx-His-Ala-Lys-Arg-Arg-Leu-Ile-Phe-NH2 (SEQ ID No. 186)
Conditions: scale: relative to H-His-Ala-Lys-Arg-Arg-Leu-Ile-Phe-NH2

Substance | Relative activity, Cyclin A Binding
H-H[Phg]KRRLIF-NH2 | < 0.1
H-HAKRRLIK-NH2 | < 0.1
H-HGKRRLIF-NH2 | 0.1
H-HAKRR[Nva]IF-NH2 | < 0.1
H-HAKRRLIY-NH2 | 0.2
H-HAKRRL[Nva]F-NH2 | 0.6
H-HAKRRLI[Phe(3-F)]-NH2 | 0.8
H-His-Ser-Lys-Arg-Arg-Leu-Ile-L-Pse-OH (peptide) | < 0.1
H-His-Ala-Lys-Cit-Arg-Leu-Ile-Phe-NH2 (peptide) | 0.2
H-His-Ser-Lys-Arg-Arg-Leu-Ile-D-Pse-OH (peptide) | < 0.1
H-His-Ala-Lys-Nle-Arg-Leu-Ile-Phe-NH2 (peptide) | < 0.1
H-His-Ala-Lys-Hse-Arg-Leu-Ile-Phe-NH2 (peptide) | < 0.1
H-HAKRRLIW-NH2 | 0.1
H-HAKRRLAF-NH2 | 0.8
H-HAKRPLIF-NH2 | < 0.1
H-HAKARLIF-NH2 | < 0.1
H-His-Ala-Lys-Arg-Arg-Leu-Ile-D-Pse-OH (peptide) | 0.1
H-HAKRNLIF-NH2 | < 0.1
H-His-Ala-Lys-Arg-Arg-Leu-Ile-Hof-NH2 (peptide) | < 0.1
H-HAKRRLIL-NH2 | < 0.1

Substance | Relative activity, Cyclin A Binding
H-HAKRRLI[Phe(ol)] | 1
H-HAARRLIF-NH2 | 0.5
H-HAKRRFIF-NH2 | < 0.1
H-HAKRRIIF-NH2 | 0.2
H-HVKRRLIF-NH2 | 1.7
H-His-Ala-Lys-Arg-Arg-Leu-Ile-1Nap-NH2 (peptide) | < 0.1
H-HIKRRLIF-NH2 | 0.2
H-HAKRR[Cha]IF-NH2 | < 0.1
H-His-Ala-Lys-Arg-Arg-Leu-Ile-Dhp-OH (peptide) | 0.2
H-HFKRRLIF-NH2 | 0.2
H-HAKRSLIF-NH2 | 0.2
H-His-Ala-Lys-Arg-Arg-Leu-Ile-2Nap-NH2 (peptide) | 0.7
H-H[Nva]KRRLIF-NH2 | < 0.1
H-HAKRRLFF-NH2 | 0.4
H-HAKRRLF-NH2 | < 0.1
H-HALRRLIF-NH2 | 1.4
H-HAKRALIF-NH2 | < 0.1
H-HAKRRVIF-NH2 | < 0.1
H-HA[Abu]RRLIF-NH2 | 0.2
H-His-Ala-Lys-Arg-Arg-Leu-Ile-L-Pse-OH (peptide) | 0.2

Substance | Relative activity, Cyclin A Binding
H-HARRRLIF-NH2 | 1.5
H-His-Bug-Lys-Arg-Arg-Leu-Ile-Phe-NH2 (peptide) | 1.2
H-HAKRRLVF-NH2 | 1.5
H-His-Ala-Lys-Arg-Sar-Leu-Ile-Phe-NH2 (peptide) | < 0.1
H-HAKRRL[Nle]F-NH2 | 0.3
H-His-Ala-Lys-Arg-Arg-1Nap-Ile-Phe-NH2 (peptide) | < 0.1
H-HAKRRLI[Cha]-NH2 | < 0.1
H-HAKRRLI[Tic]-NH2 | < 0.1
H-HAKRR[Nle]IF-NH2 | < 0.1
H-HAKRRLLF-NH2 | 0.6
H-His-Ala-Lys-Arg-Aib-Leu-Ile-Phe-NH2 (peptide) | < 0.1
H-His-Ala-Lys-Arg-Arg-Leu-1Nap-Phe-NH2 (peptide) | 0.5
H-His-Ser-Lys-Arg-Arg-Leu-Ile-Pheol (peptide) | < 0.1
H-HAKKRLIF-NH2 | 0.1
H-HA[Nle]RRLIF-NH2 | 0.2
H-HAKRRLI[Phe(4-F)]-NH2 | 5
H-H[Abu]KRRLIF-NH2 | 1.3
H-HAKRRL[Cha]F-NH2 | 0.5
H-HAKQRLIF-NH2 | < 0.1

Reference: patent US20040176301A1
